Measured values reported in US20250115681A1 (WESTLAKE UNIVERSITY, published 2025).
Where no end group is shown, it is not given here. [ ]: non-standard residue; d: D form. The star is where a group is joined. Biotin = O=C1N[C@H]2[C@H](CS[C@H]2CCCCC(=O)*)N1

Target: T1, AALPET*G peptide with N-terminal biotinylation
T1 construct: Synthetic sortase substrate peptide
T1 peptide: Biotin-AALPET[2‑hydroxyacetic acid]G
Experiment: western blot of in vitro reaction product bands

B1: mgSrtA (Ca2+-dependent) (enzyme)
chain: KPHIDNYLHDKDKDEKIEQYDKNVKEQASKDKKQQAKPQIPKDKSKVAGYIEIPDADIKEPVYPGPATREQLNRGVSFAEENESLDDQNISIAGHTFIGRPNYQFTNLKAAKKGSMVYFKVGNETRKYKMTSIRNVKPTAVGVLDEQKGKDKQLTLITCDDLNRETGVWETRKILVATEVK
notes: Engineered variant of wild-type sortase A, expressed in E. coli BL21 (DE3) with an N-terminal 6xHis tag; also called Ca^2+-dependent mgSrtA; not shown: N-terminal 6xHis tag from the pET-28a backbone
binding result: binds
